Assay [1] concerns the target HLA-B*07:02. Briefly: IEDB peptide-MHC binding, purified MHC/direct/fluorescence; filed as Kd, often an IC50 or EC50 that approximates it; ≥ and ≤ were set here for values at or beyond the usual limits of such assays.
For assay [2], the target named is HLA-A*30:01. Described as above.
The target of assay [3] is HLA-A*69:01. Described as above.
For assay [4], the target named is HLA-B*08:01. The description is as above.
Assay [5] has as its target HLA-B*15:01. The assay is described as above.
Assay [6] concerns the target HLA-A*02:01. Described as above.
In assay [7] the target is HLA-B*40:01. The description is as above.
The target of assay [8] is HLA-B*58:01. Described as above.
The target of assay [9] is HLA-A*03:01. Described as above.
The target of assay [10] is HLA-A*01:01. The description is as above.
The target of assay [11] is HLA-A*24:03. Described as above.
Assay [12] concerns the target HLA-A*11:01. The assay is described as above.
Assay [13] addresses HLA-A*26:01. The assay is described as above.
The target of assay [14] is HLA-A*31:01. The description is as above.
In assay [15] the target is HLA-B*27:05. The description is as above.
Assay [16] deals with HLA-A*69:01. Briefly: IEDB peptide-MHC binding, purified MHC/competitive/fluorescence; filed as Kd, often an IC50 or EC50 that approximates it; ≥ and ≤ were set here for values at or beyond the usual limits of such assays.
For assay [17], the target named is HLA-A*02:12. The assay is described as above.
In assay [18] the target is HLA-A*02:16. Described as above. The following applies: source organism: Vibrio cholerae O395.
Assay [19] has as its target HLA-B*39:01. The description is as above. Conditions: source organism: Vibrio cholerae O395.
For assay [20], the target named is HLA-A*68:02. The description is as above. The following applies: source organism: Vibrio cholerae O395.
Assay [21] has as its target HLA-A*02:11. Described as above.
Assay [22] addresses HLA-A*02:03. The description is as above.
Assay [23] deals with HLA-A*02:01. The description is as above.
Assay [24] deals with HLA-A*29:02. The assay is described as above. The following applies: source organism: Vibrio cholerae O395.
For assay [25], the target named is HLA-B*46:01. The assay is described as above. Conditions: source organism: Vibrio cholerae O395.
In assay [26] the target is HLA-B*18:01. The description is as above. Conditions: source organism: Vibrio cholerae O395.
Assay [27] has as its target HLA-A*02:19. Described as above.
Assay [28] has as its target HLA-A*26:01. The description is as above. Conditions: source organism: Vibrio cholerae O395.
In assay [29] the target is HLA-A*02:06. Described as above.
For assay [30], the target named is HLA-B*44:02. Briefly: IEDB peptide-MHC binding, purified MHC/direct/fluorescence; filed as Kd, often an IC50 or EC50 that approximates it; ≥ and ≤ were set here for values at or beyond the usual limits of such assays. The following applies: source organism: Rickettsia prowazekii.
Assay [31] deals with HLA-B*57:01. Described as above. Conditions: source organism: Escherichia coli O157:H7.
Assay [32] concerns the target HLA-B*48:01. Described as above. Conditions: source organism: Escherichia coli O157:H7.
For assay [33], the target named is HLA-A*68:02. The description is as above. Conditions: source organism: Escherichia coli O157:H7.
Assay [34] deals with HLA-B*15:17. The description is as above. The following applies: source organism: Escherichia coli O157:H7.
Assay [35] addresses HLA-B*46:01. Described as above. The following applies: source organism: Escherichia coli O157:H7.
Assay [36] deals with HLA-B*18:01. The assay is described as above. The following applies: source organism: Escherichia coli O157:H7.
The mark [37] stands for this setting: source organism: Vibrio vulnificus YJ016.
Where [38] appears, read: source organism: Vibrio vulnificus.
Setting [39] is: source organism: Pasteurella multocida.
The mark [40] stands for this setting: source organism: Vibrio cholerae O395.
Where [41] appears, read: source organism: Human immunodeficiency virus 1.
[42] abbreviates: source organism: Rickettsia prowazekii.
Setting [43] is: source organism: Escherichia coli O157:H7.
Setting [44] is: source organism: Yersinia pestis Nepal516.
Where [45] appears, read: source organism: Escherichia coli 536.
Where [46] appears, read: source organism: Escherichia coli O6.

Where only a bound is given, the exact number is not on record here.

Usually Kd stands for the constant that tells how readily two partners part at equilibrium. Lower therefore signals a tighter complex. On to DAYGFHNYK, for which the Kd in [1] (setting [37]) was no less than 20 µM; in assay [2] (setting [38]), 1.11 µM; in assay [3] (setting [37]), no less than 20 µM; in assay [4] (setting [37]), no less than 20 µM; in assay [5] (setting [37]), no less than 20 µM; in assay [6] (setting [37]) it was no less than 20 µM. The dissociation constant Kd in [7] (setting [37]) was no less than 20 µM; in [8] (setting [37]), no less than 20 µM; in assay [9] (setting [38]), 0.216 µM; in assay [10] (setting [37]) it was no less than 20 µM; in assay [11] (setting [37]), no less than 20 µM; in assay [12] (setting [38]), 0.13 µM. Also, in assay [13] (setting [37]), the Kd was no less than 20 µM.

With NNKSRLVAF, the dissociation constant (Kd) in assay [2] (setting [39]) is 15.7 µM; in assay [3] (setting [39]), no less than 20 µM; in assay [14] (setting [39]), no less than 20 µM; in assay [4] (setting [39]), 0.161 µM; in [5] (setting [39]), no less than 20 µM; in assay [15] (setting [39]), no less than 20 µM. Further, the dissociation constant Kd in [6] (setting [39]), in assay [7] (setting [39]), in assay [8] (setting [39]), in assay [9] (setting [39]), in assay [10] (setting [39]) and in [11] (setting [39]) was no less than 20 µM in each case. For the same sequence, the Kd in [12] (setting [39]) and in [13] (setting [39]) was no less than 20 µM throughout.

On to RVHFHRFMY, for which the equilibrium dissociation constant (Kd) in assay [16] (setting [40]), in assay [17] (setting [40]), in assay [18], in assay [19], in assay [20] and in [21] (setting [40]) was no less than 20 µM each time. Besides, the Kd in assay [22] (setting [40]) was no less than 20 µM; in assay [23] (setting [40]), no less than 20 µM; in assay [24], 0.0042 µM; in assay [25] it was no less than 20 µM; in [26], no less than 20 µM; in [27] (setting [40]) it was no less than 20 µM. This sequence returned an equilibrium dissociation constant (Kd) in assay [28] of no less than 20 µM.

Regarding NLGQHIYET, the dissociation constant Kd was no less than 20 µM in assay [16] (setting [41]); 0.323 µM in assay [17] (setting [41]); 0.11 µM in assay [29] (setting [41]); 0.0335 µM in assay [21] (setting [41]); 0.116 µM in assay [22] (setting [41]); 9 µM in assay [23] (setting [41]). The same sequence gave a Kd in [27] (setting [41]) of 0.146 µM.

With VVNYDNSTK, the dissociation constant Kd in assay [1] (setting [42]) is no less than 20 µM; in assay [30] it was no less than 20 µM; in assay [2] (setting [42]) it was 1.74 µM; in [3] (setting [42]) it was no less than 20 µM; in assay [14] (setting [42]), 5.51 µM; in assay [4] (setting [42]) it was no less than 20 µM. Moreover, the Kd in assay [5] (setting [42]) was no less than 20 µM; in [15] (setting [42]), no less than 20 µM; in assay [6] (setting [42]), no less than 20 µM; in [7] (setting [42]), no less than 20 µM; in assay [8] (setting [42]), no less than 20 µM; in assay [9] (setting [42]), 0.445 µM. The equilibrium dissociation constant (Kd) was no less than 20 µM in assay [10] (setting [42]), no less than 20 µM in assay [11] (setting [42]), 0.0451 µM in assay [12] (setting [42]) and no less than 20 µM in [13] (setting [42]).

RGRGVAIHR: the dissociation constant (Kd) in [1] (setting [43]) was no less than 20 µM; in [31], no less than 20 µM; in [14] (setting [43]), 0.0066 µM; in assay [32], no less than 20 µM; in [33], no less than 20 µM; in [5] (setting [43]) it was no less than 20 µM. Also, the Kd is no less than 20 µM in assay [15] (setting [43]); no less than 20 µM in [6] (setting [43]); no less than 20 µM in assay [7] (setting [43]); no less than 20 µM in assay [8] (setting [43]); 0.487 µM in [9] (setting [43]); no less than 20 µM in [10] (setting [43]). The Kd is no less than 20 µM in assay [34]; no less than 20 µM in assay [35]; no less than 20 µM in [36]; no less than 20 µM in assay [12] (setting [43]); 0.569 µM in [29] (source organism: Shigella dysenteriae 1012).

As to SLTPSPLDL, the Kd stood at 1.39 µM in [29] (setting [44]) and 0.21 µM in assay [23] (setting [44]).

In the case of RYICPVQQI, the Kd is no less than 20 µM in assay [1] (setting [45]); 4.19 µM in assay [2] (setting [46]); no less than 20 µM in assay [3] (setting [45]); no less than 20 µM in assay [4] (setting [45]); no less than 20 µM in assay [5] (setting [45]); no less than 20 µM in [15] (setting [45]). The Kd in assay [6] (setting [45]) was no less than 20 µM; in assay [7] (setting [45]) it was no less than 20 µM; in assay [8] (setting [46]), 9.09 µM; in assay [9] (setting [45]), no less than 20 µM; in [10] (setting [45]) it was no less than 20 µM; in assay [11] (setting [46]) it was 0.00253 µM. Besides, the dissociation constant (Kd) in assay [13] (setting [45]) was no less than 20 µM.

(Values after the Immune Epitope Database (IEDB).)
